The target of assay [1] is T1, mouse ROR1 expressed on the cell surface (CHO-mouse ROR1) (mouse, UniProt Q9Z139 30-937).
T1 construct: whole, on cells; Temporarily transfected CHO cells
As to the kind of experiment: flow cytometry on CHO cells transiently overexpressing mouse ROR1, FITC anti-human Fc detection, MFI ratio to 2nd Ab. As for the experimental part:
For this experiment, the degree of binding of the anti-ROR1 antibody and ROR1 was measured by using FACSCalibur (BD Biosciences) device with the cell lines as follows, the cell lines artificially overexpressing the ROR1 protein by transfecting an ROR1 gene temporarily (CHO-human ROR1, CHO-human ROR2, CHO-mouse ROR1) or stably (MC38-human ROR1) (FIG. 5 and FIG. 7, respectively) or the cell lines expressing ROR1 (JeKo-1, Mino) (FIG. 6) or a cell line not expressing ROR1 (MCF7) (FIG. 6). […] JeKo-1, Mino, CHO-human ROR1, CHO-mouse ROR1 and MC38-human ROR1 are all cell lines expressing human ROR1 or mouse ROR1.
Specifically, after disassociating each cell line and washing in PBS, the number of cells was counted and set as 2×10^5 cells/200 µl PBS, and then each ROR1 monoclonal antibody in Example 3 was prepared in 10 µg/mL or as 5 fold-diluted from 10 µg/mL, and was reacted at 4° C. for 1 hour. After reaction, cells were washed in PBS and then the FITC-labeled constant region (Fc)-specific antibody (Goat anti-human IgG FITC conjugate, Fc specific, Sigma, F9512, concentration: 2.0 mg/ml) was suspended in 2 µl/1×10^5 cells/200 µl PBS, and it was reacted at 4° C. for 1 hours. The confirmation of expression degree of human ROR1, human ROR2 and mouse ROR1 that were temporarily overexpressed was analyzed by using a commercially available antibody for FACS analysis (anti-ROR1: R&D Systems, FAB2000G, anti-ROR2: R&D, FAB20641P). After reaction, cells were washed in PBS and decoded by using a FACSCalibur device. The negative control group (2nd Ab) was treated only with the FITC-labeled constant region (Fc)-specific antibody. The result for the peak shift in the experimental group treated with each ROR1 monoclonal antibody was compared to the result for the shift in the control group (Mean Fluorescence Intensity Ratio, MFI Ratio: MFI of anti-ROR1/MFI of 2nd Ab).

Assay [2] has as its target T2, recombinant mouse ROR1 protein (Acrobiosystems, RO1-M5221) (mouse, UniProt Q9Z139 30-406).
T2 construct: extracellular domain; Bought; also called mouse ROR1 antigen
In words: ELISA, recombinant mouse ROR1 protein coated at 1 µg/ml, IgG titrated, HRP anti-Fab detection. As for the experimental part: The anti-ROR1 antibody-antigen binding affinity was estimated by using an ELISA-based solution binding test. Specifically, a 96-well microtiter plate (Nunc-Immuno Plates, NUNC) was coated with the ROR1 protein at a concentration of 1 µg/ml in a PBS solution as described below at 4° C. for 16 hours, and non-specific binding sites were blocked with 3% BSA (bovine serum albumin) for 2 hours. For this, as the ROR1 protein, in case of human ROR1, ROR1-Fc of Example 1 or recombinant ROR1-His (Sino Biological, 13968-H08H) was used. The ROR1-His used for ELISA was a protein of sino biological company (13968-H08H) as described in the above sentence, and ROR1-His of Example 1 or recombinant mouse ROR1 protein was used (Acrobiosystems, RO1-M5221-100 µg).
Then, after adding the anti-ROR1 antibody prepared in Example 3 at the concentration described in FIG. 2 into the microtiter plate on a 96-well microtiter plate, the binding capacity was analyzed with ELISA as follows. Specifically, after constant temperature treatment for 2 hours, the plate was washed with PBS comprising 0.05% tween 20 5 times, and then a HRP-conjugated Fab multiclonal antibody reagent (Pierce, 31414) was diluted at 1:10,000 ratio, and was put into the washed microtiter plate, and it was incubated at 37° C. for 1 hour, and the ROR1 antibody bound to the plate was detected. After reaction, it was color-developed by using TMB (Tetramethylbenzidine, Sigma, T0440). The enzymatic reaction was stopped by 0.5 mol/L of sulfuric acid, and the absorbances at 450 nm and 650 nm were measured by using a micro plate reader device (molecular device) (450 nm-650 nm).

T1 sequence (Q9Z139 30-937): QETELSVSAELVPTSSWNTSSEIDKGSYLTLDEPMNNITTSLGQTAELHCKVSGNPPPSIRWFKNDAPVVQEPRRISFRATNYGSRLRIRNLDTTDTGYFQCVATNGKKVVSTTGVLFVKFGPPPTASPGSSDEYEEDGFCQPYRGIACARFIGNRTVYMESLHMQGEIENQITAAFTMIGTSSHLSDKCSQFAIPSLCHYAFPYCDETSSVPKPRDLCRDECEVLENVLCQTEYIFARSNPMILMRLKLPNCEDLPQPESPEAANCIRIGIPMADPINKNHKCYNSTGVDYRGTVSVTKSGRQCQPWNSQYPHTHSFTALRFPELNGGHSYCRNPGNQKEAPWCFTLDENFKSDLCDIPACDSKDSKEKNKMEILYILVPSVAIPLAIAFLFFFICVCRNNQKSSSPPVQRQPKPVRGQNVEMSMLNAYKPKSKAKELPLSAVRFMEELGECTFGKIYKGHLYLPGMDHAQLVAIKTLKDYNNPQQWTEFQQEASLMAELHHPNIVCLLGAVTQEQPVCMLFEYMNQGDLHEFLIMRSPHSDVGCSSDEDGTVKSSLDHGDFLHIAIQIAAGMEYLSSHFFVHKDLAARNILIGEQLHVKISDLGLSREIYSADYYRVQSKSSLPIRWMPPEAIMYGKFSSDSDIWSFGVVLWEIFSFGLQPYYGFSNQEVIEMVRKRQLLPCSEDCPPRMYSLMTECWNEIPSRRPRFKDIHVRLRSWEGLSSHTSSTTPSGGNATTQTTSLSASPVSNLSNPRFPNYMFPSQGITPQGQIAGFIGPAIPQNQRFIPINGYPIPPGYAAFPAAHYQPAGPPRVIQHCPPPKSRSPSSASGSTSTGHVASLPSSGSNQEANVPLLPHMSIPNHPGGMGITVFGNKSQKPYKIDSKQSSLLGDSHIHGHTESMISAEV
T2 sequence (Q9Z139 30-406): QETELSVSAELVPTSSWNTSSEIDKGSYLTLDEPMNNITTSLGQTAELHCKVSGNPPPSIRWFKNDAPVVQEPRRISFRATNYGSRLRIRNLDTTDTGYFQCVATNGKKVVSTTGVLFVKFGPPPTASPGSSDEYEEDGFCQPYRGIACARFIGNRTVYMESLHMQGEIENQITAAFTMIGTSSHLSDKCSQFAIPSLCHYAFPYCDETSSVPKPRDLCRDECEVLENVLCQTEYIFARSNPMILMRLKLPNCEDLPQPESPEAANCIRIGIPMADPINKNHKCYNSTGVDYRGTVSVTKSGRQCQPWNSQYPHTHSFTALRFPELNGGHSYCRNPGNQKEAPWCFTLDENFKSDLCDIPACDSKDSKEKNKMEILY

B1: A2F2 anti-ROR1 IgG antibody (antibody, V domains shown)
VH: EVQLLESGGGLVQPGGSLRLSCAASGFTFSDYYMSWVRQAPGKGLEWVSSISPDGSNTYYADSVKGRFTISRDNSKNTLYLQMNSLRAEDTAVYYCAKNLRAFDYWGQGTLVTVSS
VL: QSVLTQPPPASGTPGQRVTISCSGSSSNIGSNTVYWYQQLPGTAPKLLIYANSQRPSGVPDRFSGSKSGTSASLAISGLRSEDEADYYCGSWDYSLSGYVFGGGTKLTVLG
On to B1, for which the binding result in assay [1] and in assay [2] was “binds” each time.

B2: D2B12 anti-ROR1 IgG antibody (antibody, V domains shown)
VH: EVQLLESGGGLVQPGGSLRLSCAASGFTFSNYDMSWVRQAPGKGLEWVSSISPSSGSSIYYADSVKGRFTISRDNSKNTLYLQMNSLRAEDTAVYYCAKAPGWCQAPSCYYDNAMDVWGQGTLVTVSS
VL: QSVLTQPPSASGTPGQRVTISCSGSSSNIGNNDVSWYQQLPGTAPKLLIYDDSQRPSGVPDRFSGSKSGTSASLAISGLRSEDEADYYCGAWDDSLSGYVFGGGTKLTVLG
With B2, the binding result in assay [1] and in assay [2] was “binds” throughout.

B3: A2F3 anti-ROR1 IgG antibody (antibody, V domains shown)
VH: EVQLLESGGGLVQPGGSLRLSCAASGFTFSSYDMSWVRQAPGKGLEWVSWISPGGGSKYYADSVKGRFTISRDNSKNTLYLQMNSLRAEDTAVYYCARVNGRFDYWGQGTLVTVSS
VL: QSVLTQPPSASGTPGQRVTISCSGSSSNIGNNNVSWYQQLPGTAPKLLIYADSHRPSGVPDRFSGSKSGTSASLAISGLRSEDEADYYCATWDYSLSGYVFGGGTKLTVLG
On to B3, for which the binding result in assay [1] and in assay [2] was “binds” each time.

The values are drawn from US12122830 (ABL BIO, dated 2024).
